Results: the supplement of paper PMC10567573

B1: RIPK4 (parent)
chain: AAWQGHLPIVKLLAKQPGVSVNAQ

Variants of: B1
Assay: protein stability index of a GFP-peptide fusion (GPS, HEK-293T) (PSI 1-6); higher = more stable
Conditions: c terminus: a fixed tail appended
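Also: lentivirally expressed fusions sorted by FACS into six bins by GFP to DsRed ratio, PSI derived from sequencing read proportions per bin multiplied by bin number.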

Row | Variant | protein stability index
1 | AAWQGHMPIVKLLAKQPGVSVNAQ [L7M] | 2.33
2 | AAWQGHFPIVKLLAKQPGVSVNAQ [L7F] | 2.71
3 | AAWQGHVPIVKLLAKQPGVSVNAQ [L7V] | 2.65
4 | AAWQGHNPIVKLLAKQPGVSVNAQ [L7N] | 3.36
5 | AAWQGHEPIVKLLAKQPGVSVNAQ [L7E] | 3.31
6 | AAWQGHIPIVKLLAKQPGVSVNAQ [L7I] | 2.76
7 | AAWQGHAPIVKLLAKQPGVSVNAQ [L7A] | 2.1
8 | AAWQGHRPIVKLLAKQPGVSVNAQ [L7R] | 5.04
9 | AAWQGHCPIVKLLAKQPGVSVNAQ [L7C] | 2.21
10 | AAWQGHPPIVKLLAKQPGVSVNAQ [L7P] | 3.21
11 | AAWQGHSPIVKLLAKQPGVSVNAQ [L7S] | 2.8
12 | AAWQGHDPIVKLLAKQPGVSVNAQ [L7D] | 3.03
13 | AAWQGHWPIVKLLAKQPGVSVNAQ [L7W] | 1.81
14 | AAWQGHGPIVKLLAKQPGVSVNAQ [L7G] | 3.01
15 | AAWQGHYPIVKLLAKQPGVSVNAQ [L7Y] | 2.05
16 | AARQGHLPIVKLLAKQPGVSVNAQ [W3R] | 2.98
17 | AAEQGHLPIVKLLAKQPGVSVNAQ [W3E] | 3.63
18 | AAYQGHLPIVKLLAKQPGVSVNAQ [W3Y] | 2.42
19 | AAHQGHLPIVKLLAKQPGVSVNAQ [W3H] | 3.06
20 | AAAQGHLPIVKLLAKQPGVSVNAQ [W3A] | 3.2
21 | AATQGHLPIVKLLAKQPGVSVNAQ [W3T] | 3.56
22 | AAKQGHLPIVKLLAKQPGVSVNAQ [W3K] | 3.21
23 | AAGQGHLPIVKLLAKQPGVSVNAQ [W3G] | 2.91
24 | AAFQGHLPIVKLLAKQPGVSVNAQ [W3F] | 2.97

Row | Variant | protein stability index
25 | AADQGHLPIVKLLAKQPGVSVNAQ [W3D] | 3.85
26 | AAIQGHLPIVKLLAKQPGVSVNAQ [W3I] | 3.07
27 | AAMQGHLPIVKLLAKQPGVSVNAQ [W3M] | 3.88
28 | AAVQGHLPIVKLLAKQPGVSVNAQ [W3V] | 2.49
29 | AACQGHLPIVKLLAKQPGVSVNAQ [W3C] | 3.78
30 | AASQGHLPIVKLLAKQPGVSVNAQ [W3S] | 3.65
31 | AANQGHLPIVKLLAKQPGVSVNAQ [W3N] | 3.29
32 | AAPQGHLPIVKLLAKQPGVSVNAQ [W3P] | 3.82
33 | AALQGHLPIVKLLAKQPGVSVNAQ [W3L] | 2.42
34 | AAQQGHLPIVKLLAKQPGVSVNAQ [W3Q] | 3.5
35 | AAWQGHLPIAKLLAKQPGVSVNAQ [V10A] | 2.33
36 | AEWQGHLPIVKLLAKQPGVSVNAQ [A2E] | 2.69
37 | AGWQGHLPIVKLLAKQPGVSVNAQ [A2G] | 2.27
38 | ACWQGHLPIVKLLAKQPGVSVNAQ [A2C] | 2.19
39 | ASWQGHLPIVKLLAKQPGVSVNAQ [A2S] | 2.25
40 | AHWQGHLPIVKLLAKQPGVSVNAQ [A2H] | 2.8
41 | AMWQGHLPIVKLLAKQPGVSVNAQ [A2M] | 2.73
42 | AQWQGHLPIVKLLAKQPGVSVNAQ [A2Q] | 2.62
43 | ALWQGHLPIVKLLAKQPGVSVNAQ [A2L] | 2.38
44 | ANWQGHLPIVKLLAKQPGVSVNAQ [A2N] | 3.16
45 | ARWQGHLPIVKLLAKQPGVSVNAQ [A2R] | 2.72
46 | APWQGHLPIVKLLAKQPGVSVNAQ [A2P] | 3.69
47 | ATWQGHLPIVKLLAKQPGVSVNAQ [A2T] | 3.11
48 | AKWQGHLPIVKLLAKQPGVSVNAQ [A2K] | 2.37

Row | Variant | protein stability index
49 | AYWQGHLPIVKLLAKQPGVSVNAQ [A2Y] | 2.12
50 | ADWQGHLPIVKLLAKQPGVSVNAQ [A2D] | 3.76
51 | AIWQGHLPIVKLLAKQPGVSVNAQ [A2I] | 1.66
52 | AFWQGHLPIVKLLAKQPGVSVNAQ [A2F] | 2.15
53 | AAWQKHLPIVKLLAKQPGVSVNAQ [G5K] | 1.97
54 | AAWQIHLPIVKLLAKQPGVSVNAQ [G5I] | 1.81
55 | AAWQDHLPIVKLLAKQPGVSVNAQ [G5D] | 2.94
56 | AAWQEHLPIVKLLAKQPGVSVNAQ [G5E] | 2.83
57 | AAWQCHLPIVKLLAKQPGVSVNAQ [G5C] | 2.69
58 | AAWQYHLPIVKLLAKQPGVSVNAQ [G5Y] | 2.89
59 | AAWQLHLPIVKLLAKQPGVSVNAQ [G5L] | 1.52
60 | AAWQMHLPIVKLLAKQPGVSVNAQ [G5M] | 2.37
61 | AAWQQHLPIVKLLAKQPGVSVNAQ [G5Q] | 2.44
62 | AAWQSHLPIVKLLAKQPGVSVNAQ [G5S] | 2.2
63 | AAWQAHLPIVKLLAKQPGVSVNAQ [G5A] | 2.02
64 | AAWQVHLPIVKLLAKQPGVSVNAQ [G5V] | 2.58
65 | AAWQTHLPIVKLLAKQPGVSVNAQ [G5T] | 2.69
66 | AAWQRHLPIVKLLAKQPGVSVNAQ [G5R] | 2.36
67 | AAWQWHLPIVKLLAKQPGVSVNAQ [G5W] | 1.71
68 | AAWQHHLPIVKLLAKQPGVSVNAQ [G5H] | 1.86
69 | AAWQPHLPIVKLLAKQPGVSVNAQ [G5P] | 2.56
70 | AAWQNHLPIVKLLAKQPGVSVNAQ [G5N] | 3.7
71 | AAWQGSLPIVKLLAKQPGVSVNAQ [H6S] | 1.84
72 | AAWQGALPIVKLLAKQPGVSVNAQ [H6A] | 2.54

Row | Variant | protein stability index
73 | AAWQGDLPIVKLLAKQPGVSVNAQ [H6D] | 2.98
74 | AAWQGFLPIVKLLAKQPGVSVNAQ [H6F] | 1.41
75 | AAWQGILPIVKLLAKQPGVSVNAQ [H6I] | 2.65
76 | AAWQGMLPIVKLLAKQPGVSVNAQ [H6M] | 1.86
77 | AAWQGTLPIVKLLAKQPGVSVNAQ [H6T] | 2.32
78 | AAWQGPLPIVKLLAKQPGVSVNAQ [H6P] | 2.67
79 | AAWQGLLPIVKLLAKQPGVSVNAQ [H6L] | 1.45
80 | AAWQGQLPIVKLLAKQPGVSVNAQ [H6Q] | 2.76
81 | AAWQGNLPIVKLLAKQPGVSVNAQ [H6N] | 2.2
82 | AAWQGELPIVKLLAKQPGVSVNAQ [H6E] | 2.81
83 | AAWQGYLPIVKLLAKQPGVSVNAQ [H6Y] | 1.1
84 | AAWQGVLPIVKLLAKQPGVSVNAQ [H6V] | 4
85 | AAWQGHLSIVKLLAKQPGVSVNAQ [P8S] | 1.78
86 | AAWQGHLCIVKLLAKQPGVSVNAQ [P8C] | 3.63
87 | AAWQGHLNIVKLLAKQPGVSVNAQ [P8N] | 1.78
88 | AAWQGHLHIVKLLAKQPGVSVNAQ [P8H] | 2.08
89 | AAWQGHLAIVKLLAKQPGVSVNAQ [P8A] | 1.63
90 | AAWQGHLGIVKLLAKQPGVSVNAQ [P8G] | 1.8
91 | AAWQGHLKIVKLLAKQPGVSVNAQ [P8K] | 1.07
92 | AAWQGHLFIVKLLAKQPGVSVNAQ [P8F] | 3.42
93 | AAWQGHLQIVKLLAKQPGVSVNAQ [P8Q] | 1.85
94 | AAWQGHLDIVKLLAKQPGVSVNAQ [P8D] | 2.25
